Legend:
[1] = biological target: T1, human EMR2 (ADGRE2, CD312) on cells (human, UniProt Q9UHX3 24-823); assay: flow cytometry, MOLM-13 cells, 1 hour at 37 °C; mean ± SEM
T1 construct: also called huEMR2 full length; Adhesion G protein-coupled receptor E2
T1 sequence: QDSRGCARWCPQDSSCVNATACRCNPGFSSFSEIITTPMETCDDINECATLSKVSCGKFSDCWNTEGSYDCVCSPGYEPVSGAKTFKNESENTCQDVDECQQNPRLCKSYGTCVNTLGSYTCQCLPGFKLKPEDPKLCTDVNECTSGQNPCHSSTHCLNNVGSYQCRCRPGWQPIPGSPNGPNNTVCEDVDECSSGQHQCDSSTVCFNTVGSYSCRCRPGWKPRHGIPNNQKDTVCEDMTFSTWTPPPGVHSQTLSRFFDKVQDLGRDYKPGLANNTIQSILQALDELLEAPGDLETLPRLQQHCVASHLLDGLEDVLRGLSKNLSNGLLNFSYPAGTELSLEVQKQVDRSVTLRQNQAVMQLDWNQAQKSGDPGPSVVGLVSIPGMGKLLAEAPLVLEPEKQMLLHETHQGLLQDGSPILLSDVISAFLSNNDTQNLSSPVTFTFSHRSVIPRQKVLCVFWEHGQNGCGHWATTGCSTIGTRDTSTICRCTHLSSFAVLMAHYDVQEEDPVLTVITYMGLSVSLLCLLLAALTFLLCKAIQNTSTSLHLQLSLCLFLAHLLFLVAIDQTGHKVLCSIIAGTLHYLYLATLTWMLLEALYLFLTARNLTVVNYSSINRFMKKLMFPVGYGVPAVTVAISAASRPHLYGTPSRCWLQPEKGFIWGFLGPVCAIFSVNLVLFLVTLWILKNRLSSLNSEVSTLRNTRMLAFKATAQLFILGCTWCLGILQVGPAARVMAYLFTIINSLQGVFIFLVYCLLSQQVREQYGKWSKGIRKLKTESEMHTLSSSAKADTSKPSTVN
Experimental: (§1) After secondary detection with AF647-labeled material, the MFI signal was analyzed to generate an EC50 value. Curves are representative of 3 independent experiments.

FcRn (human) = biological target: T2, FcRn (human) (human, UniProt P55899 24-297; P61769 21-119); assay: FcRn binding (human, pH 6)
T2 construct: also called neonatal Fc receptor

[2] = biological target: T1, human EMR2 (ADGRE2, CD312) on cells; assay: flow cytometry, OCI-AML3 cells, 1 hour at 37 °C; mean ± SEM
Experimental: as §1

[3] = biological target: T3, T-cell receptor with TRBV19 (Vβ17) beta chain on human T cells (human); assay: flow cytometry, percent TRBV19+ of live pan-T cells, Donor 6, 1 hour, 37 °C
T3 construct: whole, on cells; also called Vb17; TRBV19+ T cells

[4] = biological target: T4, EMR2W4, huEMR2 GAIN domain + GPS, D261-T540, with C-terminal Avi/6x His tag (human); assay: SPR, EMR2 arm, forced degradation study: Physiological
T4 construct: also called Human EMR2 GAIN domain protein
T4 chain: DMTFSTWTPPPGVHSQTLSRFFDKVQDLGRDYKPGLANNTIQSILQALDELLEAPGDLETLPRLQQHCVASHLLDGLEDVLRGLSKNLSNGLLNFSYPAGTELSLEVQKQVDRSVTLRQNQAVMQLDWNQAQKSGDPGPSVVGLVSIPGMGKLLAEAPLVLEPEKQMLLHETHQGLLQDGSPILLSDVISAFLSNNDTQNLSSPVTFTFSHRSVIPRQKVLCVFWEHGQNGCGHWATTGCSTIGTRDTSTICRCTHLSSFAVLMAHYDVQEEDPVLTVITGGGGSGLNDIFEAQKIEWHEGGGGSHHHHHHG

[5] = biological target: T4, EMR2W4, huEMR2 GAIN domain + GPS, …; assay: SPR, EMR2 arm, forced degradation study: Thermal
[6] = biological target: T3, T-cell receptor with TRBV19 (Vβ17) beta …; assay: flow cytometry, percent TRBV19+ of live pan-T cells, Donor 4, 1 hour, 37 °C
[7] = biological target: T1, human EMR2 (ADGRE2, CD312) on cells; assay: flow cytometry, median AF647 of live cells, MOLM 13 cells, 1 hour at 37 C
[8] = biological target: T1, human EMR2 (ADGRE2, CD312) on cells; assay: flow cytometry, OCI-AML5 cells, 1 hour at 37 °C; mean ± SEM
Experimental: as §1

[9] = biological target: T3, T-cell receptor with TRBV19 (Vβ17) beta …; assay: flow cytometry, % TRBV19+ T cells of live human pan-T cells, 1 hour at 37 C
[10] = biological target: T1, human EMR2 (ADGRE2, CD312) on cells; assay: cell-based or functional assay
[11] = biological target: T3, T-cell receptor with TRBV19 (Vβ17) beta …; assay: cell-based or functional assay
[12] = biological target: T4, EMR2W4, huEMR2 GAIN domain + GPS, …; assay: SPR, EMR2 arm, forced degradation study: pH 8.5
[13] = biological target: T1, human EMR2 (ADGRE2, CD312) on cells; assay: flow cytometry, median AF647 of live cells, OCI-AML5 WT cells, 1 hour at 37 C
[14] = biological target: T1, human EMR2 (ADGRE2, CD312) on cells; assay: flow cytometry, OCI-AML2 cells, 1 hour at 37 °C; mean ± SEM
Experimental: as §1

[15] = biological target: T4, EMR2W4, huEMR2 GAIN domain + GPS, …; assay: SPR, EMR2 arm, forced degradation study: pH 5.0

T3 sequence (A0A075B6N1 22-114): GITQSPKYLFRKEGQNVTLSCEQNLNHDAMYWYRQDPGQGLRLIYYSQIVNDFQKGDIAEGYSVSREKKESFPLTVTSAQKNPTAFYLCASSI
T2 sequence (P55899 24-297 limits assumed, chain 1 of 2): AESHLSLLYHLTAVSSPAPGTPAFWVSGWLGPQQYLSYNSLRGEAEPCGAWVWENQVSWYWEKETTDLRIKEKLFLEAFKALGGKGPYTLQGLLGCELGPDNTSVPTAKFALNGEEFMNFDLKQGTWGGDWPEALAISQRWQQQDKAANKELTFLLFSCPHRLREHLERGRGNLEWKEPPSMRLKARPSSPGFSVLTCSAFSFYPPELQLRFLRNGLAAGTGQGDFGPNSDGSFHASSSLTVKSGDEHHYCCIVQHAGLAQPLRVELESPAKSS
T2 sequence (P61769 21-119 limits assumed, chain 2 of 2): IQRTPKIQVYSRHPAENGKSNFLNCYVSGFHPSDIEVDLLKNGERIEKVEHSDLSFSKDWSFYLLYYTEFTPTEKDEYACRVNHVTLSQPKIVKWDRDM

B1: EMVBB8 (EMR2 x TRBV19 bispecific antibody) (bispecific antibody, human IgG1, kappa, L234A L235A)
heavy 1: DIQMTQSPSSLSASVGDRVTITCRSSQSLVHSNRNTYLHWYQQKPGCAPKLLIYKVSNRFSGVPSRFSGSGSGTDFTLTISSLQPEDFATYYCSQSTHVPFTFGQGTKLEIKGGGSGGSGGCPPCGGSGGQVQLQESGPGLVKPSETLSLTCTVSGYSITSGYFWNWIRQFPGKGLEWMGYISYDGSNNYNPSLKSRITISRDTSKNQFSLKLSSVTAADTAVYYCASPSPGTGYAVDYWGCGTTVTVSSEPKSSDKTHTCPPCPAPEAAGGPSVFLFPPKPKDTLMISRTPEVTCVVVSVSHEDPEVKFNWYVDGVEVHNAKTKPREEQYNSTYRVVSVLTVLHQDWLNGKEYKCKVSNKALPAPIEKTISKAKGQPREPQVYTLPPSREEMTKNQVSLWCLVKGFYPSDIAVEWESNGQPENNYKTTPPVLDSDGSFFLYSKLTVDKSRWQQGNVFSCSVMHEALHNHYTQKSLSLSPGK
heavy 2: EVQLVESGGGLVQPGGSLRLSCTASGFTFSRYSMNWVRQAPGEGLEWVSYISSSSNTIYYADSVKGRFTISRDNAKNSLYLQMNSLRDEDTAVYYCARDQGTPFDYWGQGTLVTVSSASTKGPSVFPLAPSSKSTSGGTAALGCLVKDYFPEPVTVSWNSGALTSGVHTFPAVLQSSGLYSLSSVVTVPSSSLGTQTYICNVNHKPSNTKVDKKVEPKSCDKTHTCPPCPAPEAAGGPSVFLFPPKPKDTLMISRTPEVTCVVVSVSHEDPEVKFNWYVDGVEVHNAKTKPREEQYNSTYRVVSVLTVLHQDWLNGKEYKCKVSNKALPAPIEKTISKAKGQPREPQVYTLPPSREEMTKNQVSLSCAVKGFYPSDIAVEWESNGQPENNYKTTPPVLDSDGSFFLVSKLTVDKSRWQQGNVFSCSVMHEALHNRFTQKSLSLSPGK
light: EIVLTQSPSSVSASIGDRVTITCRASQDISSWLGWYQQKPGKAPKLLIYAAISLQSGVPSRFSGSESGTDFTLTISSLQPEDFATYYCHQANSFPLTFGGGTKVEIKRTVAAPSVFIFPPSDEQLKSGTASVVCLLNNFYPREAKVQWKVDNALQSGNSQESVTEQDSKDSTYSLSSTLTLSKADYEKHKVYACEVTHQGLSSPVTKSFNRGEC
notes: also called the bispecific antibody
[1]
  EC50: 53 nM
FcRn (human)
  Kd: 306 nM
[2]
  EC50: 48 nM
[3]
  EC50: 4.9 nM
[4]
  Kd: 0.21 nM
[5]
  Kd: 0.22 nM
[6]
  EC50: 10.6 nM
[7]
  EC50: 16.4 nM
  Max (MFI): 400000 MFI
[8]
  EC50: 27 nM
[9]
  EC50: 13.1 nM
  Max % TRV19+: 7.72%
[10]
  Cytotoxicity, EC50 (nM), 24 hours, PBMC + OCI-AML3 (Table 10): 0.02 nM
  Cytotoxicity, EC50 (nM), 48 hours, PBMC + OCI-AML3 (Table 10): 0.01 nM
  Cytotoxicity, EC50 (nM), 72 hours, PBMC + OCI-AML3 (Table 10): 0.004 nM
  Cytotoxicity, EC50 (nM), 96 hours, PBMC + OCI-AML3 (Table 10): 0.003 nM
  Cytotoxicity, EC50 (nM), 120 hours, PBMC + OCI-AML3 (Table 10): 0.004 nM
[11]
  Pan-T-cell activation (CD25), EC50 (nM), 24 hours, PBMC + OCI-AML3 (Table 10): 0.02 nM
  Pan-T-cell activation (CD25), EC50 (nM), 48 hours, PBMC + OCI-AML3 (Table 10): 0.01 nM
  Pan-T-cell activation (CD25), EC50 (nM), 72 hours, PBMC + OCI-AML3 (Table 10): 0.01 nM
  Pan-T-cell activation (CD25), EC50 (nM), 96 hours, PBMC + OCI-AML3 (Table 10): 0.01 nM
  Pan-T-cell activation (CD25), EC50 (nM), 120 hours, PBMC + OCI-AML3 (Table 10): 0.01 nM
[12]
  Kd: 0.25 nM
[13]
  EC50: 13.4 nM
  Max (MFI): 260000 MFI
[14]
  EC50: 55 nM
[15]
  Kd: 0.2 nM
